# Laboratory results reported in the DeepSol protein solubility set.
# Assay: soluble on expression in E. coli; label from the status in PepcDB or PDB records
row,Sequence,soluble on expression in E. coli
1,MGHHHHHHSHMNRLPDDYDPYAVEEPSDEEPALSSSEDEVDVLLHGTPDQKRKLIRECLTGESESSSEDEFEKEMEAELNSTMKTMEDKLSSLGTGSSSGNGKVATAPTRYYDDIYFDSDSEDEDRAVQVTKKKKKKQHKIPTNDELLYDPEKDNRDQAWVDAQRRGYHGLGPQRSREQQPVPNSDAVLNCPACMTTLCLDCQRHESYKTQYRAMFVMNCSINKEEVLRYKASENRKKRRVHKKMRSNQEDAAEKAETDVEEIYHPVMCTECSTEVAVYDKDEVFHFFNVLASHS,not soluble
2,MGHHHHHHSHMPTTSRPALDVKGGTSPAKEDANQEMSSVAYSNLAVKDRKAVAILHYPGVASNGTKASGAPTSSSGSPIGSPTTTPPTKPPSFNLHPAPHLLASMQLQKLNSQYQGMAAATPGQPGEAGPLQNWDFGAQAGGAESLSPSAGAQSPAIIDSDPVDEEVLMSLVVELGLDRANELPELWLGQNEFDFTADFPSSC,not soluble
3,MGHHHHHHSHMQLVRDLLEVTSGLISDDIINMRNDLYQTPLHLAVITKQEDVVEDLLRAGADLSLLDRLGNSVLHLAAKEGHDKVLSILLKHKKAALLLDHPNGDGLNAIHLAMMSNSLPCLLLLVAAGADVNAQEQKSGRTALHLAVEHDNISLAGCLLLEGDAHVDSTTYDGTTPLHIAAGRGSTRLAALLKAAGADPLVENFEPLYDL,not soluble
4,MGHHHHHHSHMQQQETNLLANLTTNDARDNSKDFQNSKVGAAATSRDEGCNCPIIGEIVISCYWLFEIPPLISE,soluble
5,MGHHHHHHSHMRKNESYLNQPAPPIPIPTLSLMGGCREHFENHWKGRARWLMPVIPALWEAKAGRSPEVRSSKPAWPTWRNPIFTKNTKISQVLELFLNYQSLICALEKQKRQKGSLAIFCWSFQGGCVSKRPDVPSLKSQKPKRKRITGRKRLSKGSWSLLFSNLGRF,soluble
6,MGHHHHHHSHMRPLTEEETRVMFEKIAKYIGENLQLLVDRPDGTYCFRLHNDRVYYVSEKIMKLAANISGDKLVSLGTCFGKFTKTHKFRLHVTALDYLAPYAKYKVWIKPGAEQSFLYGNHVLKSGLGRITENTSQYQGVVVYSMADIPLGFGVAAKSTQDCRKVDPMAIVVFHQADIGEYVRHEETLT,soluble
7,MGHHHHHHSHMRPRRPHQIADLFRPKDQIAYSDTSPFLILSEASLADLNSRLEKKVKATNFRPNIVISGCDVYAEDSWDELLIGDVELKRVMACSRCILTTVDPDTGVMSRKEPLETLKSYRQCDPSERKLYGKSPLFGQYFVLENPGTIKVGDPVYLLGQ,not soluble
8,MGHHHHHHSHMSAFASSDRAEKSGIALEAQQKIYEKYDKNLAGEILQWVQNVTGQSFDTQGDADNLVKVFQDGSLLCTLANSLKPGSVKKVNTSAMAFKKMENISFFLKFAEEYVQKSELFQTVDLYEGQDPNAVLICLASLARKSEKNFGRSGLGPKEAQGDRREWTDEQLKAGHNVIGLQMGSNKGATASGLNMGNTRHM,soluble
9,MGHHHHHHSHMSEPGKGDDCLELESSMAESRLRAPDLGVSRCLGKCQKNSPGARKHPFSGKSFYLDLPAGKNLQFLTGAIQQLGGVIEGFLSKEVSYIVSSRREVKAESSGKSHRGCPSPSPSEVRVETSAMVDPKGSHPRPSRKPVDSVPLSRGKELLQKAIRNQVSWGKMGQSRWSPA,not soluble
10,MGHHHHHHSHMSETSFNLISEKCDILSILRDHPENRIYRRKIEELSKRFTAIRKTKGDGNCFYRALGYSYLESLLGKSREIFKFKERVLQTPNDLLAAGFEEHKFRNFFNAFYSVVELVEKDGSVSSLLKVFNDQSASDHIVQFLRLLTSAFIRNRADFFRHFIDEEMDIKDFCTHEVEPMATECDHIQITALSQALSIALQVEYVDEMDTALNHHVFPEAATPSVYLLYKTSHYNILYAADKH,soluble
11,MGHHHHHHSHMSLFSGTIQNLENALSRADIKQKVITNNIANIDTPNYKAKKVSFQNLLDQESSRLEAIKTDYRHVDFSDTDSNYSIVASGDTSYQQNGNNVDVDKEMTELAQNQINYQALVERMNGKFNSLKTVLTGGK,not soluble
12,MGHHHHHHSHMSVAGGEIRGDTGGEDTAAPGRFSFSPEPTLEDIRRLHAEFAAERDWEQFHQPRNLLLALVGEVGELAELFQWKTDGEPGPQGWSPRERAALQEELSDVLIYLVALAARCRVDLPLAVLSKMDINRRRYPAHLARSSSRKYTELPHGAISEDQAVGPADIPCDSTGQTST,soluble
13,MGHHHHHHSHMTDQTYCDRLVQDTPFLTGHGRLSEQQVDRIILQLNRYYPQILTNKEAEKFRNPKASLRVRLCDLLSHLQRSGERDCQEFYRALYIHAQPLHSRLPSRHALRKFHITNHACLVLARGGHPSLPLMAWMSSMTTQVCCSPGLASPLASAPPQRPPSGPEGRVWQAQAVQMLVSVSHFLPLPPSLSHGSFHTAWGILYVHSCPSFSNLIPRGSLHVCVDSNLVPTAAWRS,not soluble
14,MGHHHHHHSHMTSFEDADTEETVTCLQMTVYHPGQLQCGIFQSISFNREKLPSSEVVKFGRNSNICHYTFQDKQVSRVQFSLQLFKKFNSSVLSFEIKNMSKKTNLIVDSRELGYLNKMDLPYRCMVRFGEYQFLMEKEDGESLEFFETQFILSPRSLLQENNWPPHRPIPEYGTYSLCSSQSSSPTEMDENES,not soluble
15,MGHHHHHHSHMVSTATHSLSRLHTMLTGLRNAPSEKLEQILRTCSRDPTQAIANRLKEMFEIYSQHFQPDEDFSNCAKEIASKHFRFAEMLYYKVLESVIEQEQKRLGDMDLSGILEQDAFHRSLLACCLEVVTFSYKPPGNFPFITEIFDVPLYHFYKVIEVFIRAEDGLCREVVKHLNQIEEQILDHLAWKPES,not soluble
16,MGHHHHHHSHPQDNDFLSRKAQDCYFMKLHHCPGNHSWDSTISGSQRAAFCDHKTTPCSSAIINPLSTAGNSERLQPGIAQQWIQSKREDIVNQMTEACLNQSLDALLSRDLIMKEDYELVSTKPTRTSKVRQLLDTTDIQGEEFAKVIVQKLKDNKQMGLQPYPEILVVSRSPSLNLLQNKSM,not soluble
17,MGHHHHHHSHSHTIRDLKYTIENPRHFVDSHHQKPVNAIIEHVRDGSVVRALLLPDYYLVTVMLSGIKCPTFRREADGSETPEPFAAEAKFFTESRLLQRDVQIILESCHNQNILGTILHPNGNITELLLKEGFARCVDWSIAVYTRGAEKLRAAERFAKERRLRIWRDYVAPTANLDQK,not soluble
18,MGHHHHHHSHSLHYIHPYQPNEYLKALVAVGEICQDYDSDKMFPAFGFGARIPPEYTVSHDFAINFNEDNPECAGIQGVVEAYQSCLPKLQLYGPTNIAPIIQKVAKSASEETNTKEASQYFILLILTDGVITDMADTREAIVHASHLPMSVIIVGVGNADFSDMQMLDGDDGILRSPKGEPVLRDIVQFVPFRNFKHASPAALAKSVLAEVPNQVVDYYNGKGIKPKCSSEMY,soluble
19,MGHHHHHHSHSPGSASGGSREYKVVMLGAGGVGKSAMTMQFISHQFPDYHDPTIEDAYKTQVRIDNEPAYLDILDTAGQAEFTAMREQYMRGGEGFIICYSVTDRQSFQEAAKFKELIFQVRHTYEIPLVLVGNKIDLEQFRQVSTEEGLSLAQEYNCGFFETSAALRFCIDDAFHGLVREIRKKESMP,soluble
20,MGHHHHHHSHSQIQGVQTNDDLNNDSDDSSDNCVIVGFVKPLAERTPELVELSSDSEDLGSYEKMETVKTQEQEQSYSSGDSDVSRCSSPHSVLGKDEQINKGHCDSSTRIKSKKEEKRSTSLSSPRNLNSSVRGDRVYSPYNHRHRKRGRSRSSDSRSQSRSGHDQKNHRKHHGKKRMKSKRSRSRESSRPRGRRDKKRSRTRDSSWSRRSQTLSLSSESTSRSRSRSSDHGKRRSRSRNRDRYYLRNNYGSRYKWEY,not soluble
21,MGHHHHHHSHVSRHYCPTCCYPMNACLCSHLQQIKPQTQLLVLQHPSEVEHKKNSVRVLSLVIPDTQVYVGESEADFAALRAQLSRCQRPIYLVYPSEQSASVESQSICVDCVLLLIDGTWRKAFKILQLNPWLAQFPAVHLAQGYASRYKIRKSSRSDSLSTLEASAYMLKALDDGLDVSPLLAAFDAMVAMRLQAMPAEVRLRYD,not soluble
